{
  "source": "the nanobody polyreactivity screen of Harvey et al. (2022)",
  "data": [
    {"test": "yeast display, Sf9 membrane polyspecificity reagent, FACS + sequencing; frameworks hold sequencing errors", "how_it_was_run": "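A synthetic nanobody library was expressed on Saccharomyces cerevisiae BJ5465 by galactose induction for 36–48 hours. The library was stained for 1 hour at 4 °C with 10% biotinylated, detergent-solubilized Sf9 membrane reagent and enriched with streptavidin microbeads before FACS. Low and high (top ~1%) gates were set on anti-HA fluorescence for expression and streptavidin fluorescence for reagent binding, and each polyreactivity label reflects the gate of origin.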", "values": [
      {"sequence": "QVQLVESGGGLVQAGGSLRLSCAASGSIFTDYAMGWYRQAPGKERELVATITWSDASTYYTDSVKGRFTISRDNAKNTVYLQMNSLIPEDTAVYYCARRSRYSKGYDYWGQGTQVTVSS", "polyreactivity (PSR sort gate)": "low polyreactivity"},
      {"sequence": "QVQLVESGGGLVQAGGSLRLSCAASGSIFTEDAMGWYRQAPGKERELVAAISWSGATTYYADSVKGRFTISRDKAKNPVDLQMNSLKPEDTAVYYCAARWANRSYEYWGQGTQVTVSS", "polyreactivity (PSR sort gate)": "low polyreactivity"},
      {"sequence": "QVQLVESGGGLVQAGGSLRLSCAASGSIFTFNAMGWYRQAPGKERELDAGISWRTSSTSYADSVKGRFTNSRDNAKNTVYLQMNSLKPEDTAVYYCATEDSWGYEEVDYWGQGTQVTVSS", "polyreactivity (PSR sort gate)": "low polyreactivity"},
      {"sequence": "QVQLVESGGGLVQAGGSLRLSCAASGSIFTFNTMGWYRQAPGKERELVATISSGGRTYYADSVKGRFTISRDNAKNTVYLQMNSLKPEDTAVYYCNKGYYGYTYVEYNYWGQGTQVTVSS", "polyreactivity (PSR sort gate)": "low polyreactivity"},
      {"sequence": "QVQLVESGGGLVQAGGSLRLSCAASGSIFTFYAMGWYRQAPGKERELVAAISKGGDRTYYADSVKGRFTISRDNAKNTVYLQMNSLIPEDTAVYYCARLVRPGRFGDGDYWGQGTQVTVSS", "polyreactivity (PSR sort gate)": "low polyreactivity"},
      {"sequence": "QVQLVESGGGLVQAGGSLRLSCAASGSIFTFYAMGWYRQAPGKERELVATINRIGGNTYYADSVKGRFTISRDNAKNTVYLQMNSLKPEDTAVYYCAAKPTYRGYGYGSWGQGTQVTVSS", "polyreactivity (PSR sort gate)": "low polyreactivity"},
      {"sequence": "QVQLVESGGGLVQAGGSLRLSCAASGSIFTFYAMRWYRQAPGKERELVATINRIGGNRYYADSVKGRFTISRDNAKNTVYLQMNSLKPEDTAGYYCAAKPTYRGYGYGSWGQGTQVNVSS", "polyreactivity (PSR sort gate)": "low polyreactivity"},
      {"sequence": "QVQLVESGGGLVQAGGSLRLSCAASGSIFTGNAMGWYRQAPGKERELVASITTSTDSTYYADSVKGRFTISRDNAKNTVYLQMNSLNPEDTAVYYCAAEYAVAWKYGLYFYFHFDYWGQGTQVTVSS", "polyreactivity (PSR sort gate)": "low polyreactivity"},
      {"sequence": "QVQLVESGGGLVQAGGSLRLSCAASGSIFTGNTMGWYRQAPGKDRELVATISRRGGSTYYADSVKGRFTITRDNAKYSVYLQMNSLKPEDTAVYYCAARGPYRPPHGDAYYTYGYWGQGTQVTVSS", "polyreactivity (PSR sort gate)": "high polyreactivity"},
      {"sequence": "QVQLVESGGGLVQAGGSLRLSCAASGSIFTGNTMGWYRQAPGKERELVAAISRRGGRTYYADSVKGRFTISRDNAKNTVYLQMNSLKPEDTAVYYCAALGRDSTPHGYWGQGTQVTVSS", "polyreactivity (PSR sort gate)": "high polyreactivity"},
      {"sequence": "QVQLVESGGGLVQAGGSLRLSCAASGSIFTGYAMGWYRQAPGKERELVAAIRTRGGSTYYADSVKGRFTISRDNAKNTVYLQMNSLKPEDTAVYYCAKRYYGWYGNFDYWGQGTQVTVSS", "polyreactivity (PSR sort gate)": "high polyreactivity"},
      {"sequence": "QVQLVESGGGLVQAGGSLRLSCAASGSIFTGYAMGWYRQAPGKERELVAGISWGGTSTYYADSVKGRFTISRDNAKYTVYLQMNSLKPEDTAVYYCSAVRGKYGYLTTPDWFDYWGQGTQVTVSS", "polyreactivity (PSR sort gate)": "high polyreactivity"},
      {"sequence": "QVQLVESGGGLVQAGGSLRLSCAASGSIFTGYSMGWYRQAPGKERELVAAISNSGTSTYYADSVKGRFTISRDNAKNTVYLQMNCLKPDDTAVYYCNRYHRLRVVPSRYVKYDYWGQGTQVTVSS", "polyreactivity (PSR sort gate)": "low polyreactivity"},
      {"sequence": "QVQLVESGGGLVQAGGSLRLSCAASGSIFTHNAMGWYRQAPGKVREFVAAISSGGSTNYADSVKGRFTISRDNAKNTVYSQMNSLKPEDTAVYYCAKSIDGWYWRRRRYDYWGQGTQVTVSS", "polyreactivity (PSR sort gate)": "low polyreactivity"},
      {"sequence": "QVQLVESGGGLVQAGGSLRLSCAASGSIFTKNSMGWYRQAPGKERELVAAISSGGSTYYADSVKGRFTISRDNAKNTVYLQMNSLKPEDTAVYYCARGASFFQKFYYWGQGTQVTVSS", "polyreactivity (PSR sort gate)": "high polyreactivity"},
      {"sequence": "QVQLVESGGGLVQAGGSLRLSCAASGSIFTLNAMGWYRQAPGKERELVAAIRWSGGSTYYADSVKGRFTISRDNAKNTVYLQMNSLKPEDTAVYYCAAKYPSDYYSRGFNYWGQGTQVTVSS", "polyreactivity (PSR sort gate)": "high polyreactivity"},
      {"sequence": "QVQLVESGGGLVQAGGSLRLSCAASGSIFTLNAMGWYRQAPGKERELVAAISRSGGSTYYADSVKGRFTISRDNAKNTVYLQLNSLKPEDTAVYYCAVYVTRDSGWWLYDYWGQGTQVTVSS", "polyreactivity (PSR sort gate)": "high polyreactivity"}
    ]}
  ]
}
